This is an account of results in publication PMC6126627.

Holding throughout (test): ELISA
In experiment [1] the target is human plasma vitronectin (human).
The target of experiment [2] is murine sarcoma laminin (mouse) (UniProt P19137).
Experiment [3] concerns the target human plasma fibronectin (human).

Consider “full-length recombinant P4 (rP4^G22-K274), Haemophilus lipoprotein e (from UniProt P26093 22-274) (natural protein)”, for which the Kd in experiment [1] is 16.5 nM; in experiment [2], 9.26 nM; in experiment [3], 10.2 nM.
